Measurements as given in patent US20250243243A1, “DISRUPTION OF SONIC HEDGEHOG-SURF4 INTERACTION FOR CANCER TREATMENT” (The Hong Kong University of Science and Technology, priority 2022, published 2025).

Tests used:
GST-SURF4^49-60 = molecular target: T1, GST-SURF4^49-60 (Homo sapiens, UniProt O15260); test: Peptide binding assay: peptides immobilized on thiopyridone sepharose 6B beads, GST-SURF4^49-60 as prey, immunoblot; details: pull down, immunoblotting with anti-GST antibodies
T1 construct: N-terminal GST-tagged SURF4^49-60; made in house; host or cells: E. coli
Experimental: (§1) Immunoprecipitation was performed as described (27). Purification of GST-tagged ShhN^25-49 and GST-tagged […] was performed as described previously (54). GST pull down assays were performed as described previously (54). Peptide binding assay was performed as described previously (27).
(§2) Peptide binding assay was performed as described previously (59). Synthetic CW peptides ([…]; SEQ ID NO: 6), CW^MT peptides ([…]; SEQ ID NO: 9), SURF4^49-61 peptides ([…]; SEQ ID NO: 10), SURF4^49-60 peptides ([…]; SEQ ID NO: 12), or RRFR peptides ([…]; SEQ ID NO: 11) were purchased from GenScript and coupled to thiopyridone-Sepharose 6B beads (Sigma-Aldrich) via the added C-terminal cysteine residue. For binding experiments, 2 ? g purified GST-tagged SURF4^49-60 or Shh^25-49-GST was preincubated at 4° C. for 30 min in a total volume of […] HK buffer. After incubation, […] buffer containing around 5 ? l beads containing 5 nmol of peptides was added to the reaction mixture for 1 h at 4° C. The beads were washed four times with […] of HK buffer and analyzed by immunoblotting.

GST = molecular target: T2, GST (Schistosoma japonicum, UniProt P08515); test: Peptide binding assay: immobilized peptides, GST as prey, immunoblot; details: pull down, GST control prey
T2 construct: made in house; host or cells: E. coli
T2 sequence (P08515 whole entry): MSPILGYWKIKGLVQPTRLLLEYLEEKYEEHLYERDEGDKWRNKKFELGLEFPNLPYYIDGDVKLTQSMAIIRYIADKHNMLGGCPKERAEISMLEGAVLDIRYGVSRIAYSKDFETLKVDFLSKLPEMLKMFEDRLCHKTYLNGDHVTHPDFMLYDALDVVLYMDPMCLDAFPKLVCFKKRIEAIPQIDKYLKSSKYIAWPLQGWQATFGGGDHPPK
Experimental: as §1, §2

Shh^25-49-GST = molecular target: T3, Shh^25-49-GST (Mus musculus, UniProt Q62226); test: Peptide binding assay: immobilized SURF4 luminal peptides, Shh^25-49-GST as prey, immunoblot; design: species or system human; details: pull down, immunoblotting with anti-GST antibodies
T3 construct: C-terminal GST-tagged Shh^25-49; made in house; host or cells: E. coli
T3 sequence (Q62226 25-49): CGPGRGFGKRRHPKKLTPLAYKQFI
Experimental: as §1, §2

[1] = molecular target: T4, interaction between ShhN and SURF4 (Mus musculus, UniProt Q62226); test: GST pull down of SURF4-HA from HEK293T lysates by ShhN^25-49-GST in the presence of heparin; type: binding, human
T4 construct: Purified GST-tagged human ShhN^25-49 was incubated with lysates; made in house; host or cells: ShhN25-49-GST from E. coli; SURF4-HA in lysates of transfected HEK293T cells
Experimental: as §1
Purification of GST-tagged ShhN^25-49 and GST-tagged SURF4^49-60 was performed as described previously (58). GST pull down assays were carried out with 10 μl of compact GSH beads bearing around 5 ? g of GST-tagged ShhN^25-49. The beads were incubated with […] of 0.5 mg/ml of cell lysates from HEK293T cells transfected with HA-SURF4 in HKT buffer at pH 6.0 or 7.2 with mixing at 4° C. overnight. After incubation, the beads were washed three times with […] of HKT buffer and twice with […] of HK buffer, and the bound material was analyzed by immunoblotting.

With “CW(KR-AA) peptides: Alanine substituted mutant of the CW peptide, AAAHPAAC (SEQ ID NO: 9)” the “level of GST-SURF4^49-60 bound to immobilized peptides” value (GST-SURF4^49-60) was “bound more efficiently to the wild-type CW sequence than an alanine substituted mutant”.

In the case of “RRFR peptides: Peptides corresponding to the first intracellular loop of Frizzled6, VRRFRYPERPC (SEQ ID NO: 11)”, the “level of GST-SURF4^49-60 bound to immobilized peptides” value (GST-SURF4^49-60) is reported as “significantly lower than that bound to the CW peptides”.

For “SURF4 luminal peptides: First luminal loop of SURF4, SEQRDYIDTTWNC (SEQ ID NO: 10)”, the “binding of GST to immobilized peptides” value (GST) was “not GST interacts” and the “interaction of Shh^25-49-GST with immobilized SURF4 luminal peptides” value (Shh^25-49-GST) was “interacts”.

For heparin, the “inhibition of the interaction between ShhN and SURF4” value ([1]; indicated concentrations of heparin) was “inhibited the interaction between ShhN and SURF4 in a concentration-dependent manner” and the “inhibition of the ShhN-SURF4 interaction at pH 6.0” value ([1]; pH 6.0) was “still inhibits the ShhN-SURF4 interaction”.
